Data published in patent publication CN111196852A (SICHUAN KELUN BOTAI BIOMEDICAL CO LTD; ANYUAN MEDICINE TECH …, dated 2020).
Blank lines part the entries; values can stand above or below the binder they belong to.

Tests used:
人TIGIT-His = molecular target: T1, 人TIGIT-His (human, UniProt Q495A1 22-141, limits assumed); experiment: BLI (ForteBio Octet QK), Human TIGIT(His tag) on Ni-NTA sensor, antibody 3.125-100 nM; order of magnitude only
T1 construct: Loaded on Ni-NTA sensors in the BLI runs; also called Human TIGIT(His tag); not shown: His tag
T1 sequence (looked up): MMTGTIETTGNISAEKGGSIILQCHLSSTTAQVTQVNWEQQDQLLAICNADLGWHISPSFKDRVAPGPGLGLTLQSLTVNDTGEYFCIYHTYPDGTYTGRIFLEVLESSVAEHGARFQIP

人TIGIT = molecular target: T2, 人TIGIT (human, UniProt Q495A1 22-141, limits assumed); experiment: ELISA, human TIGIT coated, HRP goat anti-mouse IgG
T2 construct: also called 人TIGIT抗原
T2 sequence (looked up): T1 sequence (looked up)

Kd (人TIGIT-His): ~10 pM | EC50 (人TIGIT): ~18 pM
B1: 鼠单克隆抗体Mab21 (antibody, mouse IgG2b, V domains shown)
VH: EVQLQQSGAELVKPGASVRLSCTASGFNIKDTYINWVKQRPEQGLEWIGRIDPANGDTKYAPKFQGKATITTDTSSNTAYLQLSSLTSEDTAVYYCPKSGDYGWYFDVWGAGTTVTVSS
VL: DIVLTQSPASLSVTPGDSVSLSCRASQSISNNLHWYQQKSHESPRLLIKYASQSISGIPSRFSGSGSGTYFTLSINSVETEDFGMYFCQQSNSWLTFGAGTKLELKR
notes: Mouse IgG2b (Kappa), purified from hybridoma #21 on protein G; also called 杂交瘤细胞株#21

Kd (人TIGIT-His): ~1 pM | EC50 (人TIGIT): ~18 pM
B2: 鼠单克隆抗体Mab7 (antibody, mouse IgG1, V domains shown)
VH: QVQLQQSGAELVSPGTSVKVSCKASGYAFTNYLIEWIYQRPGQGLEWIGVINPGSGGTIYNEKFKGKATLTADKSSNIAYLQLSSLTSDDSAVYFCAGSYGSSYTFDYWGQGTTLTVSS
VL: DIVMTQSHKFLSTSVGDSVSITCKASQHVSTAVVWYQQKPGQSPKLLIYSPSYRYTGVPDRFTGSGSGTDFTFTISSVQAEDLAVYYCHQHYSTPWTFGGGTKLEIKR
notes: Mouse IgG1 (Kappa), purified from hybridoma #7 on protein G; also called 杂交瘤细胞株#7
